We go through two molecules from PMC4011162, “A gene horizontally transferred from bacteria protects arthropods from host plant cyanide poisoning” (eLife, 2014).

Data set [1] concerns the target T1, Tu-CAS (Tetranychus urticae, UniProt T1KF23).
T1 construct: gene 107363798; tag removal not mentioned; PLP-dependent, predicted cytosolic
T1 sequence (T1KF23 1-320): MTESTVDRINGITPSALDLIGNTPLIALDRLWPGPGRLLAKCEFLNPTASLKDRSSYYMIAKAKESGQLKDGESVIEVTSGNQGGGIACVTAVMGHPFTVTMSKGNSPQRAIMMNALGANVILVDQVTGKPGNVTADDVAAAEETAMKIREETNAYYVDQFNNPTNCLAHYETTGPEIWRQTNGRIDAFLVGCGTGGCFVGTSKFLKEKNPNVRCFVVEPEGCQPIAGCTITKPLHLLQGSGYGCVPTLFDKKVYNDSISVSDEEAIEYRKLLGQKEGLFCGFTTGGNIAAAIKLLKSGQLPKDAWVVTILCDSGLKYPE
In words: cofactor dependence of enzymatic activity. The class given is biochemical. Particulars: 500 µM pyridoxal-5'-phosphate in assay; Schiff base lysine conserved by sequence.

Substrate in data set [2]: N[C@@H](CS)C(=O)O
In words: purified protein. Particulars: co-substrate sodium cyanide (standard 0.01 M stock), 0.2 M Tris pH 8.5, 37 °C, preincubated with 500 µM pyridoxal-5'-phosphate. The class given is biochemical, Tetranychus urticae.

Substrate in data set [3]: CC(=O)OC[C@H](N)C(=O)O
Nature of the data set: purified protein. Particulars: co-substrate sodium sulfide (standard 2 mM); preincubated with 500 µM pyridoxal-5'-phosphate; pH not given.

Turning to `Cc1ncc(COP(=O)(O)O)c(C=O)c1O` [pyridoxal-5′-phosphate], the “cofactor dependence of enzymatic activity” value in data set [1] is “Enzymatic activity was dependent on pyridoxal-5′-phosphate as a cofactor”.

B1: Tu-CAS (Tetranychus urticae) (protein)
chain: MTESTVDRINGITPSALDLIGNTPLIALDRLWPGPGRLLAKCEFLNPTASLKDRSSYYMIAKAKESGQLKDGESVIEVTSGNQGGGIACVTAVMGHPFTVTMSKGNSPQRAIMMNALGANVILVDQVTGKPGNVTADDVAAAEETAMKIREETNAYYVDQFNNPTNCLAHYETTGPEIWRQTNGRIDAFLVGCGTGGCFVGTSKFLKEKNPNVRCFVVEPEGCQPIAGCTITKPLHLLQGSGYGCVPTLFDKKVYNDSISVSDEEAIEYRKLLGQKEGLFCGFTTGGNIAAAIKLLKSGQLPKDAWVVTILCDSGLKYPE
notes: tag removal not mentioned; PLP-dependent, predicted cytosolic
Consider B1, for which, in data set [2], the Michaelis constant (Km) (as a rule, the substrate concentration at which the rate is half of its maximum) was found to be 312 µM and the kcat/Km (in general, the second-order rate constant that governs catalysis at low substrate concentration) amounted to 6840 M⁻¹ s⁻¹. In data set [3], the Km was found to be 3170 µM and the kcat/Km stood at 203 M⁻¹ s⁻¹.
